The values that follow come from the nanobody polyreactivity screen of Harvey et al. (2022).

The nature of this data set: yeast display, Sf9 membrane polyspecificity reagent, FACS + sequencing; frameworks hold sequencing errors. The gist of the method:
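Galactose induction of a Saccharomyces cerevisiae BJ5465 synthetic nanobody display library ran 36–48 hours. The cells were then stained for 1 hour at 4 °C with 10% biotinylated, detergent-solubilized Sf9 membrane reagent, pulled down on streptavidin microbeads and FACS-sorted into low and high (top ~1%) gates on expression and reagent-binding fluorescence. Labels for polyreactivity follow the gate of origin.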
Regarding “QVQLVESGGGLVQAGGSLRLSCAASGFIFQPYAMGWYRPAPGKERELVAGITGSGGNTYYADSVKGRFTISRDNAKNTVYLQMNSLKPEDTAVYYCAARRHIFLLIIWSGRVDYWGQGTEVTVSS”, the “polyreactivity (PSR sort gate)” value is “low polyreactivity”. In the case of “QVQLVESGGGLVQAGGSLRLSCAASGFIFQSYAMGWYRQAPGKERELVASISASGGSTYYADSVKGRFTISRDNAKNTVYLQMNSLKPEDTAVYYCAAGYWSYWSLRMDYWGQGTQVTVSS” it was “high polyreactivity”; in that of “QVQLVESGGGLVQAGGSLRLSCAASGFIFQVYAMGWYRQAPGKERELVASISSSGGSTYYADSVKGRFTISRDNAKNTVYLQMNSLKPEDTAVYYCAVEQRYRYWYRYRYKFLLDSDYWGQGTQVTVSS”, “high polyreactivity”. For “QVQLVESGGGLVQAGGSLRLSCAASGFIFQYNTMGWYRQAPGKERELVAVITRTGSTNYADSVKGRFTISRDNGKNTVYLQMNSLQPEDTAVYYCATSVYSRPRKPRYYYWGQGTQVTVSS” the value was “high polyreactivity”.

For the sequence “QVQLVESGGGLVQAGGSLRLSCAASGFIFQYYAMGWYRQAPGKERELVAAINRGGGTHYADSVKGRFTISRDNAKNTVYLQMNSLKPEDTAVYYCNKVYYWPGSRPSRYEYWGQGTQVTVSS”, the “polyreactivity (PSR sort gate)” value is listed as “low polyreactivity”. In the case of “QVQLVESGGGLVQAGGSLRLSCAASGFIFQYYAMGWYRQAPGKERELVAAISWRSTSTYYADSVKGRFTISRDNAKNTVYLQMNSLKPEDTAVYYCAASPGFSIGYEYWGQGTQVTVSS” it was “low polyreactivity”.

Consider “QVQLVESGGGLVQAGGSLRLSCAASGFIFQYYAMGWYRQAPGKERELVAAITPSGTSTYYADSVKGRFTISRDNAKNTVYLQMNSLKPEDTAVYYCAAYYRYASDYWGQGTQVTVSS”, for which the “polyreactivity (PSR sort gate)” value is “low polyreactivity”. For “QVQLVESGGGLVQAGGSLRLSCAASGFIFRAYAMGWYRQAPGKERELVAAISGSGGSTYYADTVKGRFTISRDNAMNTVDLQMNSLKPEDTAVYYCNKYVGYYAYNYNYWGQGTQVTVSS” the value was “high polyreactivity”. Turning to “QVQLVESGGGLVQAGGSLRLSCAASGFIFRAYVMGWYRQAPGKERELVAAISYRGGSTNYADSVKGRFTISRDTAKNTVYLHMNSLKPEDTAVYYCAADQVHKREYDYWGQGTQVTVSS”, the “polyreactivity (PSR sort gate)” value is “low polyreactivity”. In the case of “QVQLVESGGGLVQAGGSLRLSCAASGFIFRDYDMGWYRQAPGKERELVPAISWRGGTYYADSVKGRFTISRDNAKNTVYLQMNSLKPEDTAVYYCNATRYRLRPSGVRYKYNYWGQGTQVTVSS” it was “low polyreactivity”; in that of “QVQLVESGGGLVQAGGSLRLSCAASGFIFRFNALGWYRQAPGKERELVAAISGSGGITYYADSVKGRFTISRDNAKNTVYLQMNSLKPEDTAVYYCAAGTGKRSVRFDYWGQGTQVTVSS”, “high polyreactivity”. As to “QVQLVESGGGLVQAGGSLRLSCAASGFIFRFNAMGWYRQAPGKERELVAGITWSGGSTYYADSVKGRFTISRDNAKNTVYLQMNSLKPEDTAVYYCDADNPYLGRKFDYWGQGTQVTVSS”, the “polyreactivity (PSR sort gate)” value is “high polyreactivity”. In the case of “QVQLVESGGGLVQAGGSLRLSCAASGFIFRGYAMGWYRQAPGKERELVAAINSGGSTNYADSVKGRFTISRDNAKNTVYLQMNSLKPEDTAVYYCAARVKTSYRYLRTYNYWGQGTQVTVSS” it was “high polyreactivity”; in that of “QVQLVESGGGLVQAGGSLRLSCAASGFIFRGYAMGWYRQAPGKERELVAAITSSGGDTYYADSVKGRFTISRDNAKNTVYLQMNSLKPEDSAVYYCAKRARRIGDVNMGSWGQGSQVTVSS”, “low polyreactivity”; in that of “QVQLVESGGGLVQAGGSLRLSCAASGFIFRHYAMGWYRQSPGKAREMVAVINWSGSSTYYADSVKGRFTISRDNEKNTVFLQMNSLKPEDTAVYYCAVRSLRVDKYGYWGLGTQVTVSS”, “high polyreactivity”. As for “QVQLVESGGGLVQAGGSLRLSCAASGFIFRLYAMGWYRQAPGKERELVAAISTGGGRTYYADSVKGRFTFSGDNAKNTVYLQMNSLKPEDTADYDCNTLVEPHYDYWGQGTQVTVSS”, the “polyreactivity (PSR sort gate)” value is recorded as “high polyreactivity”. In the case of “QVQLVESGGGLVQAGGSLRLSCAASGFIFRLYAMGWYRQAPGKERELVAAITWSGGSTYYADSVKGRFTISRDNAKNTVYLQMNSLKPEDTAVYYCAAYATKNAFEYWGQGTQVTVSS” it was “high polyreactivity”; in that of “QVQLVESGGGLVQAGGSLRLSCAASGFIFRNYAMGWYRQAPGKERELVAAIDSSGGSTYYADSVKGRFTISRDNAKNTVYLQMNSLKPEDTAVYYCAAESYYYQYEYWGQGTQVTVSS”, “high polyreactivity”; in that of “QVQLVESGGGLVQAGGSLRLSCAASGFIFRRNAMGWYRQAPGKERELVAAISAGGTSTYYADSVKGRFTISRDNAKNTVYLQMNSLKPEDTAVYYCNKAYYYDAEYDYWGQGTQVTVSS”, “high polyreactivity”. For “QVQLVESGGGLVQAGGSLRLSCAASGFIFRRNAMGWYRQAPGKERELVAAISRTGGSTYYADCVKGRFTISRDNAKNTDYLQMNSLKPEDTAVYYCARYGLVYALGYWGQGTQVTVSS” the value was “high polyreactivity”; for “QVQLVESGGGLVQAGGSLRLSCAASGFIFRRYALGWYRQAPGKERELVAAISWGGTSTYYADSVKGRFTISRDNAKNTVYLQMNSLKPVDTAGYYCAADRSVRTRGGFDYWGQGTQVTVSS”, “high polyreactivity”. In the case of “QVQLVESGGGLVQAGGSLRLSCAASGFIFRRYAMGWYRQAPGKERELVAAIRSDGSTNYADSVKGRFTISRDNAKNTVYLQMNSLKPEDTAVYDCAATYYSYTWFSQYYYWGQGTQVTVSS” it was “high polyreactivity”; in that of “QVQLVESGGGLVQAGGSLRLSCAASGFIFRRYAMGWYRQAPGKERELVAAITSSGTSTYYADSVKGRFTISRDNAKNTVYLQMNSLKPEDTAVYYCNAAQYYERFNHWGQGTQVTVSS”, “high polyreactivity”. With “QVQLVESGGGLVQAGGSLRLSCAASGFIFRRYVMGWYRQAPGKERELVAAISYGGGSTYYADSVKGRFTISRDNAKNTVYLQMNSLKPEDTAVYYCAARVYYDAYDYWGQGTQVTVSS”, the “polyreactivity (PSR sort gate)” value is recorded as “high polyreactivity”. On to “QVQLVESGGGLVQAGGSLRLSCAASGFIFRSYAMGWYRQAPGKERELVAAINSRAGNTYYADSVKGRFTISRDNAKNTVYLQINSLKPEDNAVYYCNAVRHTYGYYSWGQGTQVTVSS”, for which the “polyreactivity (PSR sort gate)” value is “high polyreactivity”. For “QVQLVESGGGLVQAGGSLRLSCAASGFIFRTYAMGWYRQAPRKERELVAAITYSAGSTYYADSVKGRFTISRDNAKNTVYLQMNSLKPEDTAVYYCNVRKTWYGYSVTGRYDYWGQGTQVTVSS” the value was “low polyreactivity”. For “QVQLVESGGGLVQAGGSLRLSCAASGFIFRWYAMGWYRQAPGKERELVAANSSGSSTTYADSVKGRFTISRDNAKNTVYLQMNSLKPEDTAVYYCNRGPRIYRYQYDYWGQGTQVTVSS” the value was “high polyreactivity”; for “QVQLVESGGGLVQAGGSLRLSCAASGFIFRWYAMGWYRQAPGKERELVASIDSSGTRTYYADSVKGRFTISRDNAKNTVYLQMNSLKPEDTAVYYCNAEPSSLGETDYDYWGQGTQVTVSS”, “low polyreactivity”; for “QVQLVESGGGLVQAGGSLRLSCAASGFIFRWYTMGWYRQAPGKERELVAAISSSGGTTYYADSVKGRFTISRDNAKNTVYLQMNSLKPEDTAVYYCTTRYPLGGTYTRYPLKGDYWGQGTQVTVSS”, “high polyreactivity”. For “QVQLVESGGGLVQAGGSLRLSCAASGFIFRYFAMGWYRQAPGKERELVAAISRSGGSTYYADSVKGRFTISRDNAKNTVYLQMNSLKPEDTAVYYCAAKDGRSYYDLSPMDYWGQGSQVTVSS” the value was “low polyreactivity”; for “QVQLVESGGGLVQAGGSLRLSCAASGFIFRYNAMGWNRQAPGKERELVARINSGVSTNYADSVKGRFTISRDNAKNTVYLQMNSLKPEDTAVYYCNARVRRGYSRFDYWGQGTQVTVSS”, “high polyreactivity”; for “QVQLVESGGGLVQAGGSLRLSCAASGFIFRYNAMGWYRQAPGKERELVAAISSGGSTNYADSVKGRFTISRDNAKNTVYLQMNSLKPEDTAVYYCAADVEQYYPLLTFDFWGQGTQVTVSS”, “low polyreactivity”. For “QVQLVESGGGLVQAGGSLRLSCAASGFIFRYNAMGWYRQAPGKERELVAAISSSGGSTYYADSVKGRFTISRDNAKNTVYVQMNSLKPEDTAVDYCNAYNYGYIGYGYNYWGQGTQVTVSS”, the “polyreactivity (PSR sort gate)” value was “high polyreactivity”. For “QVQLVESGGGLVQAGGSLRLSCAASGFIFRYNAMGWYRQAPGKERELVASISYSGARTYYADSVKGRFTISRDNEKNTVYLQMNSLKPEDTAVYYCATGPLSYVRYYYWGQGTQVTVSS” the value was “low polyreactivity”; for “QVQLVESGGGLVQAGGSLRLSCAASGFIFRYNTMGWYRQPPGKERELVAAISVSGARTYYADSVKGRFTLSRDNAKNTVYLQMNSLKPEDTAVYYCNRRYPLYSRYNNDYWGQGTQVTVSS”, “high polyreactivity”; for “QVQLVESGGGLVQAGGSLRLSCAASGFIFRYYAKGWYREAPGKERELVAAITSGGASTYYADSVKGRFRISRDNAKNTVYLQMNSLKPEDTPVYYCAADTSSYSEYDYWGQGTQVTVSS”, “low polyreactivity”.

For the sequence “QVQLVESGGGLVQAGGSLRLSCAASGFIFRYYAMGWYIQAPWKERELVAAIRRGRSTYYADSVKGRFTISRDNAKYTVYLQMNSLKPEDTAVDYCAVRLVSRFGISSYDYWGQGTQVTVSS”, the “polyreactivity (PSR sort gate)” value is given as “high polyreactivity”. In the case of “QVQLVESGGGLVQAGGSLRLSCAASGFIFRYYAMGWYRPAPGKERELVATISSGGGTHYADSVKGRFTISRDNAKNTVYLQMNSLKPEDAAVYYCNARGYRRLRTRVDYWGQGTQVTVSS” it was “high polyreactivity”.

In the case of “QVQLVESGGGLVQAGGSLRLSCAASGFIFRYYAMGWYRQAPGKERELVAAISGSGGSTYYADSVKGRFTISRDNAKNTVYLQMNSLKPEDTAVYYCNKGRGRVYGIYDYWGQGTQVTVSS”, the “polyreactivity (PSR sort gate)” value was “high polyreactivity”.

As for “QVQLVESGGGLVQAGGSLRLSCAASGFIFRYYAMGWYRQAPGKERELVAAISNNAGRTYYADSVKGRFTISRDNAKNTVYLQMNSLKPEDTAVYYCAARVWTGRKYDYWGQGTQVTVSS”, the “polyreactivity (PSR sort gate)” value is reported as “high polyreactivity”. For “QVQLVESGGGLVQAGGSLRLSCAASGFIFRYYAMGWYRQAPGKERELVAAISWSGGSTYYADSVKGRFTISRDNAKNTVYLQMNSLKPEDTAVYYCNAVTTYGEYDYWGHGTQVTVSS” the value was “high polyreactivity”.
